Target: CTBMPR (not stated | Human immunodeficiency virus 1 (HIV-1)) (UniProt P01556)
Assay: SEC

Substance CTBMPR (from UniProt P01556 22-124) has a stoichiometry N of 5.

From paper PMC4174873
